From patent US8679765B2, “Methods and compositions for diagnosis and treatment of malignant and non-malignant gammopathies” (Ludwig Institute for Cancer Research Ltd., priority 2009, dated 2014)
Blank lines part the entries; values can stand above or below the molecule they belong to.

Columns and labels:
[1] = test system: paratarg-specific paraprotein (patients' sera); experiment: Paraprotein binding to recombinant paratarg, stomatin family members and paratarg peptides/fragments (dot blot, ELISA, peptide spot analysis); design: species or system human; details: for recognition by paratarg-specific paraproteins / patients' serum: ELISA, Western blotting or peptide spot analysis
Protocol: 100 ng of each recombinant protein were separated by SDS-PAGE and transferred to PVDF membrane (Millipore Immobilon) by semidry blotting. The membrane was blocked in TST/milk buffer (10% milk in 10 mM Tris/HCl, pH 7.5, 150 mM NaCl, 0.1% (v/v) Tween 20) overnight, washed and incubated for 1 h with serum in TST (paraprotein patients serum at a dilution of 1:10^8 and control patients serum at a dilution of 1:10^3). After three washings in TST, the membranes were incubated for 1 h at RT with goat anti-human IgG AP-coupled antibody (Dianova) diluted 1:5,000 in TST, subsequently washed in TST followed by AP-development.
His6-tagged fusion proteins were spotted on nitrocellulose membranes. After spotting, the protein arrays were blocked, incubated and detected as described above.
The epitopes recognized by the patients' paraproteins were identified as described before (Preuss et al, 2006). In brief: matrix-bound synthesized decamer peptides with 5 amino acids overlaps between every 2nd consecutive decamer covering the entire paratarg sequence were used to screen patients sera. Paratarg-specific paraproteins binding to the corresponding paratarg epitopes were visualized by ECL technique according to the suppliers' instructions (PIERCE, Rockford, USA). Finally, matrix stripes were photographed for documentation.
Full-length paratarg was recombinantly expressed in HEK293 cells under control of CMV promoter introducing a FLAG tag at the C-terminus of the protein. Total cell extract was prepared and coated indirectly to Nunc maxisorb plates using anti-FLAG mAb (Sigma). Elisa was performed according standard protocols. Partially truncated paratarg fragments were processed accordingly.
Paratarg fragments were obtained by PCR amplification using suitable primers and verified by sequencing. These fragments were subcloned into the vector and expressed as described before.

[2] = test system: paraproteins of serum pool #1 (MGUS/MM patients' sera); experiment: Serum profiling on high density protein arrays (paraprotein screening of hEx1 human fetal brain macroarray); type: binding; design: key: Paraprotein-binding quality/strength are ++, + and ±.; Paraprotein-binding quality/strength are ++, + and ±.; Paraprotein-binding quality/strength are ++, + and ±; details: serum pool #1 (n=114), each serum diluted 1:10^8
Protocol: Screening analyses were performed on hEx1 high-density protein expression cDNA libraries, created in Hans Lehrach's laboratory at the Max Planck Institute for Molecular Genetics in Berlin (Germany) and obtained from the Reference Center of the German Human Genome Project (RZPD) (Bussow et al, 1998). These high-density filter membranes display proteins that were expressed from a modified pQE protein expression vector (Qiagen). This vector featured a hexahistidine tag, a T5 promoter and two lac operator sequences, which allowed repression during the growth phase by overexpression of the Lac repressor protein, and subsequent induction of protein expression with isopropyl-beta-D-thiogalactopyranoside (IPTG).
High density protein arrays of the protein expression set of the hEx1 library were obtained from the German Resource Center for Genome Research (RZPD) and provided by Dr. Mahlknecht from our department. They consist of 37,200 independent clones derived from a human fetal brain cDNA expression library and were used for autoantibody detection. For serum profiling, the filters were blocked in 10% (w/v) non-fat, dry milk powder in TBST (TBS, 0.1% (v/v) Tween 20) at 4° C. overnight, washed twice in TBST, and incubated for 1 h with serum pool #1 at a dilution of 1:10^8 for each serum. Following three 30-min TBST washes and subsequent incubation with the secondary antibody (goat anti-human IgG biotinylated, Dianova, diluted 1:2.500) and Strep-PDX (1:15.000) in 2% (w/v) Milk/TBST, the filters were washed three times for 30 min in TBST. This was followed by detection using Pharmacia ECL system. Positive signals were localized according to the manufacturer's protocol. Corresponding clones were obtained from RZPD.
In this study we screened a human high-density protein array containing 37,200 independent recombinant proteins derived from a human fetal brain expression library with sera obtained from patients with monoclonal gammopathy of undetermined significance (MGUS) and multiple myeloma (MM).
The signal pattern obtained from the screening with the paraprotein pools at a dilution of 1:10^8 were compared with the patterns obtained from screening with the control sera from clinically healthy donors and to background incubations. […] 5′- and 3′-tag sequencing of these clones was performed, and their sequences were used for BLAST searches against public databases at NCBI.
Using serum pool #1 (paraprotein type: 15 IgA, 88 IgG, 11 oligoclonal, n=114) we identified 14 putative paraprotein targets on the human protein filter array (FIG. 1, Tab. 1). […] Sequence searches and comparisons using the in-frame sequences identified five known proteins and one unknown gene product derived from chromosome 8.

- recognition by paratarg-specific paraproteins / patients' serum [1]: no signal
Molecule: stomatin: recombinantly expressed human stomatin family member

- recognition by paratarg-specific paraproteins / patients' serum [1]: recognized
Molecule: SLLASGRAP [paratarg amino acid region]

- recognition by paratarg-specific paraproteins / patients' serum [1]: no signal
B2: SLP-1: recombinantly expressed human stomatin family member (protein)
chain: MLGRSGYRALPLGDFDRFQQSSFGFLGSQKGCLSPERGGVGTGADVPQSWPSCLCHGLISFLGFLLLLVTFPISGWFALKIVPTYERMIVFRLGRIRTPQGPGMVLLLPFIDSFQRVDLRTRAFNVPPCKLASKDGAVLSVGADVQFRIWDPVLSVMTVKDLNTATRMTAQNAMTKALLKRPLREIQMEKLKISDQLLLEINDVTRAWGLEVDRVELAVEAVLQPPQDSPAGPNLDSTLQQLALHFLGGSMNSMAGGAPSPGPADTVEMVSEVEPPAPQVGARSSPKQPLAEGLLTALQPFLSEALVSQVGACYQFNVVLPSGTQSAYFLDLTTGRGRVGHGVPDGIPDVVVEMAEADLRALLCRELRPLGAYMSGRLKVKGDLAMAMKLEAVLRALK

- serum dilution at which recognition was detectable ([1]; individual patient sera): 10^10
B4: paratarg: stomatin-like protein 2 (SLP-2), SEQ ID NO: 1, antigenic paraprotein target (protein, listed as Homo sapiens)
chain: MLARAARGTGALLLRGSLLASGRAPRRASSGLPRNTVVLFVPQQEAWVVERMGRFHRILEPGLNILIPVLDRIRYVQSLKEIVINVPEQSAVTLDNVTLQIDGVLYLRIMDPYKASYGVEDPEYAVTQLAQTTMRSELGKLSLDKVFRERESLNASIVDAINQAADCWGIRCLRYEIKDIHVPPRVKESMQMQVEAERRKRATVLESEGTRESAINVAEGKKQAQILASEAEKAEQINQAAGEASAVLAKAKAKAEAIRILAAALTQHNGDAAASLTVAEQYVSAFSKLAKDSNTILLPSNPGDVTSMVAQAMGVYGALTKAPVPGTPDSLSSGSSRDVQGTDASLDEELDRVKMS
- titer of paraprotein-containing sera reacting with the antigen ([1]; sera of more than two patients): > 10^8

Second part, the molecule before the results:

Molecule: SLLASGRAPRRASSG [15 amino acid region near the N-terminal end of paratarg]
- recognition by paratarg-specific paraproteins / patients' serum [1]: recognized by patients' serum

B1: MPMGp800P18577: RZPD clone, NM_004323.3 (protein, UniProt Q99933 1-345, looked up)
BAG family molecular …: MAQRGGARRPRGDRERLGSRLRALRPGREPRQSEPPAQRGPPPSGRPPARSTASGHDRPTRGAAAGARRPRMKKKTRRRSTRSEELTRSEELTLSEEATWSEEATQSEEATQGEEMNRSQEVTRDEESTRSEEVTREEMAAAGLTVTVTHSNEKHDLHVTSQQGSSEPVVQDLAQVVEEVIGVPQSFQKLIFKGKSLKEMETPLSALGIQDGCRVMLIGKKNSPQEEVELKKLKHLEKSVEKIADQLEELNKELTGIQQGFLPKDLQAEALCKLDRRVKATIEQFMKILEEIDTLILPENFKDSRLKRKGLVKKVQAFLAECDTVEQNICQETERLQSTNFALAE
- Signal-quality (paraprotein-binding quality/strength) [2]: +

B3: MPMGp800P21581: RZPD clone, NM_001622.1 (protein, UniProt P02765 19-300; P02765 341-367, looked up)
Alpha-2-HS-glycoprotein chain … 1: APHGPGLIYRQPNCDDPETEEAALVAIDYINQNLPWGYKHTLNQIDEVKVWPQQPSGELFEIEIDTLETTCHVLDPTPVARCSVRQLKEHAVEGDCDFQLLKLDGKFSVVYAKCDSSPDSAEDVRKVCQDCPLLAPLNDTRVVHAAKAALAAFNAQNNGSNFQLEEISRAQLVPLPPSTYVEFTVSGTDCVAKEATEAAKCNLLAEKQYGFCKATLSEKLGGAEVAVTCMVFQTQPVSSQPQPEGANEAVPTPVVDPDAPPSPPLGAPGLPPAGSPPDSHVL
Alpha-2-HS-glycoprotein chain … 2: TVVQPSVGAAAGPVVPPCPGRIRHFKV
- Signal-quality (paraprotein-binding quality/strength) [2]: +

B5: MPMGp800E08596: RZPD clone coding for paratarg (protein)
chain: B4 chain
modifications: left off: small tags and cut ends
notes: RZPD clone coding for paratarg
- Signal-quality (paraprotein-binding quality/strength) [2]: ++

B6: MPMGp800E08580: RZPD clone, NM_004819.1 (protein, UniProt Q92797 1-1274, looked up)
Symplekin: MASGSGDSVTRRSVASQFFTQEEGPGIDGMTTSERVVDLLNQAALITNDSKITVLKQVQELIINKDPTLLDNFLDEIIAFQADKSIEVRKFVIGFIEEACKRDIELLLKLIANLNMLLRDENVNVVKKAILTMTQLYKVALQWMVKSRVISELQEACWDMVSAMAGDIILLLDSDNDGIRTHAIKFVEGLIVTLSPRMADSEIPRRQEHDISLDRIPRDHPYIQYNVLWEEGKAALEQLLKFMVHPAISSINLTTALGSLANIARQRPMFMSEVIQAYETLHANLPPTLAKSQVSSVRKNLKLHLLSVLKHPASLEFQAQITTLLVDLGTPQAEIARNMPSSKDTRKRPRDDSDSTLKKMKLEPNLGEDDEDKDLEPGPSGTSKASAQISGQSDTDITAEFLQPLLTPDNVANLVLISMVYLPEAMPASFQAIYTPVESAGTEAQIKHLARLMATQMTAAGLGPGVEQTKQCKEEPKEEKVVKTESVLIKRRLSAQGQAISVVGSLSSMSPLEEEAPQAKRRPEPIIPVTQPRLAGAGGRKKIFRLSDVLKPLTDAQVEAMKLGAVKRILRAEKAVACSGAAQVRIKILASLVTQFNSGLKAEVLSFILEDVRARLDLAFAWLYQEYNAYLAAGASGSLDKYEDCLIRLLSGLQEKPDQKDGIFTKVVLEAPLITESALEVVRKYCEDESRTYLGMSTLRDLIFKRPSRQFQYLHVLLDLSSHEKDKVRSQALLFIKRMYEKEQLREYVEKFALNYLQLLVHPNPPSVLFGADKDTEVAAPWTEETVKQCLYLYLALLPQNHKLIHELAAVYTEAIADIKRTVLRVIEQPIRGMGMNSPELLLLVENCPKGAETLVTRCLHSLTDKVPPSPELVKRVRDLYHKRLPDVRFLIPVLNGLEKKEVIQALPKLIKLNPIVVKEVFNRLLGTQHGEGNSALSPLNPGELLIALHNIDSVKCDMKSIIKATNLCFAERNVYTSEVLAVVMQQLMEQSPLPMLLMRTVIQSLTMYPRLGGFVMNILSRLIMKQVWKYPKVWEGFIKCCQRTKPQSFQVILQLPPQQLGAVFDKCPELREPLLAHVRSFTPHQQAHIPNSIMTILEASGKQEPEAKEAPAGPLEEDDLEPLTLAPAPAPRPPQDLIGLRLAQEKALKRQLEEEQKLKPGGVGAPSSSSPSPSPSARPGPPPSEEAMDFREEGPECETPGIFISMDDDSGLTEAALLDSSLEGPLPKETAAGGLTLKEERSPQTLAPVGEDAMKTPSPAAEDAREPEAKGNS
- Signal-quality (paraprotein-binding quality/strength) [2]: +
